Assay results: the DeepSol protein solubility set

assay: soluble on expression in E. coli; label from the status in PepcDB or PDB records

Row | Sequence | soluble on expression in E. coli
1 | MSNLYTELKNEWSKHAPNLTHCSRLLDGFKLELVRSNFGTIQTASSSKQKDQLIKSREMLEIAVEHSITIKDYAAFERYMAQLNTYYYDYDKYLESSKHMYKFMGLNLLYMLATNRLADFHIELERLPTALLLHDSFIQPVLALENYYMEGRYNKILQAKKSMPSEIYSNFMDILVNTAREEIASCMEKSYLKMAPKLAAQRLGLRPGSKELFELATKRQWCLDEEGNYDYAGLHTRPMEKVPAKDIATHNLTYAQELEKIVLEHHHHHH | not soluble
2 | MSNQKLSDGGACCSPLAREPLTEDWAGDLARMFKALGDPVRLRLLSLIASHAGGEACVCDISESFDLSQPTISHHLKVLRAAGLLDCERRGTWVYYWVIPSALQQLSAVLLTESGTAVPSPTCAEARA | not soluble
3 | MSNRKFNLDNEVQPEIHFRLLSISASKFENDWTSFPHSHHFTEIFFIKDGTGRMLIENESLPVSSNSLVVIGAQVTHTEFSDPENPLDYYVLGVEGLKLNTDKEPEYIHVPASANSPFIRQCFENILREMHNKQDRYAEICQHYLDILILYFCRKDHVSYEVVDAQNSSRECHKVKRFIEHNYQSMISLDSLAENCSLSKYYLSHRFAELYGKSPIAYLNEVRLASARDLLLTTNHSIEEIAGCIGFSSTSYFSQSFQKNFHESPQQFRKSHRVRT | not soluble
4 | MSNSFGIKVIACDKIFYNGRCTQLVLPLRDGSKAIQAHHENMVFSVEVGEIKITKEDGSTIVGVTGTGFAQMVNNRATVIVDTCEYPEEIDLRRAEEAKERAEEQLRQKQSIAEYHISKASLARAMARLKEGSGKGTPYGY | not soluble
5 | MSNSQAGPGASVRRVLAVIPARGGSKGVPAKNLAPVGGVPLVVRAVRECLAARLVTDVVVSTDDQAIAAAAREAGAEVVLRPAAIAGDTATSEAAVLHAMDAHEALHGAAVDVVLLVQCTSPFLVREDVDGVAGAVVEDGADTAVTVAPFHGFVWRDGADEPGGADGGHGVNHDKAYRPRRQDRPQDLLETGAAYAMAAPGFRKHRHRFFGRTDLVRTDPARVLEIDDPHDLARARALAPHFDTARPGALPTAADIDAVVLDFDGTQTDDRVLIDTDGREFVSVHRGDGLGIAALRRSGLTMLILSTEVNPVVAARARKLKLPVLHGIDRKDLALKQWCEEQGIAPERVLYVGNDVNDLPCFALVGWPVAVASAHDAVRGAARAVTTVPGGEGAVREIAAWLLGPSLDALGPASETTPTLTQSKLEHHHHHH | soluble
6 | MSPAFRAMDVEPRAKGVLLEPFVHQVGGHSCVLRFNETTLCKPLVPREHQFYETLPAEMRKFTPQYKGVVSVRFEEDEDRNLCLIAYPLKGDHGIVDIVDNSDCEPKSKLLRWTTNKKHHVLETEKTPKDWVRQHRKEEKMKSHKLEEEFEWLKKSEVLYYTVEKKGNISSQLKHYNPWSMKCHQQQLQRMKENAKHRNQYKFILLENLTSRYEVPCVLDLKMGTRQHGDDASEEKAANQIRKCQQSTSAVIGVRVCGMQVYQAGSGQLMFMNKYHGRKLSVQGFKEALFQFFHNGRYLRRELLGPVLKKLTELKAVLERQESYRFYSSSLLVIYDGKERPEVVLDSDAEDLEDLSEESADESAGAYAYKPIGASSVDVRMIDFAHTTCRLYGEDTVVHEGQDAGYIFGLQSLIDIVTEISEESGE | not soluble
7 | MSPAITRKRFIAGAVCPACSEQDKIQMWEEDGVPHRECVACGYADTLNAQGQSIPKELGTRVNQNAPKPANPKVQSVQFFPNPKLKKKPDA | not soluble
8 | MSPAWPLRPGQKVRVEFYKYPEEALHYFWEAEVVEVRPEGVLTLLPQGGVFHHVGKGRSLVLDHDAYVAFFPGAWYSGGPDVREGRVLEYYWNVQTPALWTGEAFRQYDLELDVKCRADHTCEVFDREEFLAKRPLYPRAWVEEAERAVEAVFRHMREGRWPVLPPGKPLPWMERI | soluble
9 | MSPPLVIKNGTVVNEDGMFKADVLVRNGIIVEVSPNITALPDTEVIDATDRLVIPGGIDPHTHMQMPYMGEVTKDDFLKGTEAAVAGGTTMIIDFCCPDHRNGESLIAGYNRWRSWADPKVCCDYGLSVAITMWRPETAEQMAIITSPEFGVNSFKFYMAYENTLMVRDDELFRGMQECAKLRALARVHCENGSVIKEKEIDLLAKGVTGPEGHTQSRPEEIEAEATNRACVLAAQANCPVYIVHVMTKGAASAISHHRAQGSIVFGEPIAAGLALDGSHYYNEDWLHAARYVMSPPLSRDPTTPELLMKLLAAGELHLTGTDNCTYDCRQKSLGKGNFTKIPNGINGVEDRMSVVWEKGVHSGIIDPMRYVSITSSTAAKIFNIYPRKGRIAVGSDADIVIFNPNATRTISKDTHHHNLDFNIFEGINCHGVAEVTISRGRIVWAHGKLQTVPGSGKFIPLLANSPFVFSTHEKREQKIQPRIVERLE | not soluble
10 | MSQATKRKHVVKEVLGEHIVPSNQQQIVRVLRTPGNNLHEVETAQGQRFLVSMPSKYRKNIWIKRGDFLIVDPIEEGEKVKAEISFVLCKDHVRSLQKEGFWPEAFSEVAEKHNNRNRQTQPELPAEPQLSGEESSSEDDSDLFVNTNRRQYHESEEESEEEEAA | soluble
11 | MSQKLKVVTIGGGSSYTPELLEGFIKRYHELPVSELWLVDVEGGKPKLDIIFDLCQRMIDNAGVPMKLYKTLDRREALKDADFVTTQLRVGQLPARELDERIPLSHGYLGQETNGAGGLFKGLRTIPVIFDIVKDVEELCPNAWVINFTNPAGMVTEAVYRHTGFKRFIGVCNIPIGMKMFIRDVLMLKDSDDLSIDLFGLNHMVFIKDVLINGKSRFAELLDGVASGQLKASSVKNIFDLPFSEGLIRSLNLLPCSYLLYYFKQKEMLAIEMGEYYKGGARAQVVQKVEKQLFELYKNPELKVKPKELEQRGGAYYSDAACEVINAIYNDKQAEHYVNIPHHGQIDNIPADWAVEMTCKLGRDGATPHPRITHFDDKVMGLIHTIKGFEIAASNAALSGEFNDVLLALNLSPLVHSDRDAELLAREMILAHEKWLPNFADCIAELKKAH | soluble
12 | MSQLCPCGSAVEYSLCCHPYVSGEKVAPDPEHLMRSRYCAFVMQDADYLIKTWHPSCGAAALRAELMAGFAHTEWLGLTVFEHCWQDADNIGFVSFVARFTEGGKTGAIIERSRFLKENGQWYYIDGTRPQFGRNDPCPCGSGKKFKKCCGQ | not soluble
13 | MSQLVFIVFQDNDDSRYLAEAVMEDNPDAEMQHQPAMIRIQAEKRLVINRETMEEKLGRDWDVQEMLINVISIAGNVDEDDDHFILEWN | soluble
14 | MSQNHVIELANTLKQRPIVCDYTGGRFRLTNEGLTYIGIDRDGTPLPPRWICAPLHIVAKTRDAQSGEWGRLLEWQDDDGITHQWAMPLALLQGDASDVRRELARLGLSISPHRTARDLLASYLQVFPVDARARCVDKLGWHGDVFVTASQCIGQSTEKIVFQNTNAIEPAMSIKGSVDKWRDSIGRLASGNSRLVFAISVALAPVLAKIVGEDSGGFHFRGASSSGKSTALSLAASVWGNPQSYCRLWRSTTNGLEGLAALHNDGLLILDELSQMDPREAGEAAYLLANGQGKTRASRTGTVRQSSRWSLFFLSAGEESLTALMAKSGQRINAGQEIRLADIEADAGCQMGIFETIHDQLSPASMALSLKKYSSGYHGAIGRAWLNQVVANRQTISRFITDTIQSFVDIVIQPDATGQIIRVARRFALVAAAGELASQFGLTGWKKGESFHAAKTCFIAWQDAFGVDGHREDRAIMAQVRAFFESHGASRFDNVNSPNNDKILNRAGFYHTDGEGFRIYMVLTETYKNELCKGFDQRTVTRVLLQAGWLKPASDGKLEHHHHHH | not soluble
15 | MSQQEISIINLDQLVSMTSVEIAELTGKEHKHVLRDIRNMVEELNGAKTEHCSTLSSELNGSKFGLVGEEVYKDAKGESRTMYRLDRKHTFILVAGYSVHLRAKCYDHIQTLERRVLQLEDQKKRAAIQSANRRGVTWGDYCKTYGLPAQKLMTALLQHRGLFRKNPISNEWSVNPKYSDCFRIIKPSDQKFSAGGYNFRFNAKGLEVFGKPEMVDKMRGILIAFTGTDQQKQEHLLKLAQSGKVEGI | not soluble
16 | MSQVTADALTAQVVAEYLYEHPDFFQHHPHLVERLALPTQTGAVSLAHVQLARQRQRIDSLEEEITALMSLAANNDRTFHEFMDLQEQILKCSSLQAVLHAIEAKARELNLRAYVRLLQRHDEKYGLASEDWQRFATNHFNGKSAYLGRLRQADRQRLLGDRPAPEMGSYVVLPLQRQAPLGILAFASEDGGHFQPSMDTLFLRHLALVLAHLIETLPWQSHDEERRTHPAS | not soluble
17 | MSQVTRVYAGRLAGMIVRGPDTDAIGRVRDVIVNVRPNGQPSRVLGLVVEMMNNRKIFLPMLRVAAIEPQEITLVSGSVSLRAYKPRNGEVAIIADIVGSKVHIDDPELDHLHGRPVEVADIELERTRTRDWAISRVAVIGERPKFGRRPELFTCPWSHVHGISAGGVGITDAAAELIAEFEDMRPADIATVLYELPDAQRANVAKELDDDRLADVLQEMSEDRQAELIETLDIERAADVLEEMDPDDAADLLGELDDDKADVLLELMDPEESAPVRRLMSFSPDTVGALMTPEPLILSPQTTVAEALALARNPDLPTSLASIVFVVRPPTATPTGKYLGCVHLQKLLREPPSELVSGILDPDLPPLWASDSQETAARYFATYNLVCGPVVDNDNHLLGAVAVDDLLDHMLPDDWRDTGIRPDETPKEV | not soluble
18 | MSQWHHPRSGWGRRRDFSGRSSAKKKGGNHIPERWKDYLPVGQRMPGTRFIAFKVPLQKSFEKKLAPEECFSPLDLFNKIREQNEELGLIIDLTYTQRYYKPEDLPETVPYLKIFTVGHQVPDDETIFKFKHAVNGFLKENKDNDKLIGVHCTHGLNRTGYLICIYLIDVEGVRPDDAIELFNRCRGHCLERQNYIEDLQNGPIRKNWNSSVPRSSDFEDSAHLMQPVHNKPVKQGPRYNLHQIQGHSAPRHFHTQTQSLQQSVRKFSENPHVYQRHHLPPPGPPGEDYSHRRYSWNVKPNASRAAQDRRRWYPYNYSRLSYPACWEWTQ | soluble
19 | MSQYGFVRVPREVEKAIPVVNAPRPRAVVPPPNSETARLVREYAAKELTAPVLNHSLRVFQYSVAIIRDQFPAWDLDQEVLYVTCLLHDIATTDKNMRATKMSFEYYGGILSRELVFNATGGNQDYADAVTEAIIRHQDLTGTGYITTLGLILQIATTLDNVGSNTDLIHIDTVSAINEQFPRLHWLSCFATVVDTENSRKPWGHTSSLGDDFSKKVICNTFGYN | not soluble
20 | MSREQAILVGCQLAGVDDERFRYSMEELASLVATANGEVVAEVTQKREAPHPATYIGKGKTEELAAIVKQLEPDVVIFNSELSPSQARNLTKMLGEVKVIDRTQLILDIFARRARSKEGKLQVELAQLEYMLPRLSGQGEALSRLGGGIGTRGPGETKLETDRRHIRRRIDDIKAELVRIAEHRGRYRERRQKNQAFQVALVGYTNAGKSTIFNRLTAADSLEENLLFATLDPLTRKCVLPCGYTVLVTDTVGFIQDLPTTLVAAFRSTLEEVTEADLLLHVVDSSHPDYVAHERTVSRLLAELGASSIPMVTVYNKSDQKASEFIPTTTASIMISALSAADIDRLRYFLEEAVKQQMARYDVSIPSGEGKLLARLKSDTILHEWHYNEQGGTYDCQGYVLPTHPLYGELQSFQR | soluble
21 | MSRFTDKVAIITGSSNGIGQATARLLASEGAKVTVTGRNAERLEETKNILLGAGVPEGNVLVVVGDITQESVQENLIKSTLDKFGKIDILVNNAGAGIPDAQGKSGVNQSIDTYHKTFELNVQSVIEMTQKARPHLAKTQGEIVNISSIGAGPAAQVASPYYSIAKAALDQYTRTAAIDLVPEGIRVNSVSPGAVSTGFSAVSRGLTEEKSKAFYDYLGAQRECIPRGFCAVPEDIAKVIAFLADRNASNYIIGQTIVADGGTSLILGAHAHGAKMMQAVFKEL | not soluble
